Patent publication US20020199213A1 (Kyowa Kirin, published 2002)

T1: Human CD152 Mu-Ig fusion (Ancel # 501-820) (human, UniProt P16410 36-161)
T1 construct: Bought reagent; coated on ELISA plates at 0.2 ug/ml for hybridoma screening; also called CTLA-4; not shown: murine Ig part of the bought fusion, not described
T1 sequence (looked up): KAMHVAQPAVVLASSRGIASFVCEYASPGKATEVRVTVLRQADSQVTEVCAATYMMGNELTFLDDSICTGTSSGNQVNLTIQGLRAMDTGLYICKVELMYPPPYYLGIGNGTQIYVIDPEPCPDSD

B1: 1H5 (antibody, V domains shown)
VH: QLQLQESGPGLVKPSETLSLTCTVSGGSISNSNYYWGWIRQPPGKELEWIGSIYYTGNTYYNPSLKSRVTVSVDTSRNQFSLNLNSVIAADTAVYSCARHGFTISWSLDVWGQGTTVTVSS
VL: AIQLTQSPSSLSASVGDRVTITCRASQGISSALAWYQQKPGKAPKLLIYDASSLESGVPSRFSGSGSGTDFTLTISSLQPEDFATYYCQQFNSYLLTFGGGTKVEIK
B2: 9C4 (antibody, V domains shown)
VH: QVQLVESGGGVVEPGRSLRLSCAASGFTFSSYGMHWVRQAPGKGLEWVAVIWYKSSEKDYADSAKGRFTISRDNSKNTLYLQMNSLRAEDTAVYYCARAGLLGYFDYWGQGTLVTVSS
VL: EIVLTQSPGTLSLSPGERATLSCRASQSLNSYLAWYQQKPGQAPRPLIYGVSSRATGIPDRFSGSGSGTDFTLTISRLEPEDFAVYYCQQYGIYPFTFGPGTKVDIK

Key:
CD4:Fc (human) = CD4:Fc (human) (UniProt P01730); experiment: SPR, BIAcore2000, CD4:Fc immobilized by amine coupling, MAb flowed
[1] = biological target: T1, Human CD152 Mu-Ig fusion (Ancel # …); experiment: ELISA of hybridoma supernatant on coated human CD152 mu-Ig fusion (assay taken from paragraph 247; the table does not explain OD)

Row | Molecule | Ka (CD4:Fc (human)) | koff (CD4:Fc (human)) | kon (CD4:Fc (human)) | OD [1]
1 | murine anti-CD4 MAb, Leu3a (Pharmingen) (antibody) | 3.1e+10 M⁻¹ | 7.1e-06 s⁻¹ | 220000 M⁻¹ s⁻¹ | –
2 | B1 | – | – | – | 1.39 OD
3 | B2 | – | – | – | 1.3 OD
